Assay results as given in patent US20150351390A1, “COMPOSITIONS AND METHODS FOR AUXIN-ANALOG CONJUGATION” (PIONEER HI-BRED INTERNATIONAL, INC., priority 2012, published 2015).
“Also recorded” adds a separate entry of the source.

How the values were obtained:
soybean seedlings = test: Soybean seedling response to spot infiltrated auxins and conjugates; for 1st trifoliate leaf curl: key: 0 = no phenotype; +/− = threshold; for Chlorotic lesion @ app. Pnt: key: 0 = no phenotype; +/− = threshold; type: in vivo; design: 1st trifoliate leaf curl / Epinasty score: key: 0 = no phenotype; +/− = threshold; conditions: for 1st trifoliate leaf curl / Chlorotic lesion @ app. Pnt / Epinasty score: spot infiltration
Experimental: Conjugate forms of auxinic compounds when applied through spot infiltration, a needleless method to introduce exogenous agents into plant cells. Initially, various concentrations of analytical grade (98%+pure) IAA, 2,4-D, and dicamba were prepared as solutions that were applied directly to uni-foliate leaves of 9 day old soybean seedlings by spot infiltration in order to determine the range of auxinic response and severity.
Spot infiltration comprises applying a compound to be tested in composition that is applied to the surface of a plant, for example, to a leaf or other plant structure. For example, a method for testing a plant response to one or more compounds using spot infiltration comprises a) providing a composition comprising one or more compounds to be tested in a container having at least an opening for the compound enter and/or exit, and one or more elements for moving the composition into or out of the container; b) contacting at least one opening of the container with the surface of a plant and moving the composition comprising one or more compounds to at least the surface of the plant. A container and elements for moving the composition may comprise a syringe body and plunger. Moving the composition to the plant surface comprises contacting the surface with pressure sufficient for the composition to enter the cells of the plant. In an aspect, spot filtration testing comprises measuring an effect of the composition on the contacted plant and comparing that measure or effect to a plant that is not contacted with the composition.
Plant response phenotypes were documented at one day post-spot infiltration and subsequently every other day, up to nine days post treatment. […] In the studies described herein below, 5 replicate treatments for each conjugate form were conducted, along with appropriate negative controls.
Examples 9 and 10 utilized a spot infiltration method for the delivery of an herbicide directly to leaves of a plant. The method generally allows for the directed delivery of a variety of agents to a localized area of a plant, e.g. localized region of leaves, for screening or assessment purposes, e.g. to quickly assess the response of a plant to the agent. As used in the foregoing examples, the spot infiltration method was used to introduce specific herbicides or specific conjugates of the herbicides to seedling plant leaves. Following introduction of the herbicide or the appropriate conjugate, plants were observed daily for nine days for characteristics of epinasty, trifoliate leaf curly, chlorosis, and new growth recovery.
Briefly, a solution of the desired agent is prepared of the desired agent, e.g. as described above in Example 10, solutions (5% EtOH) of 1, 2.5 and 5 mM IAA. The solution is then drawn into a 1 mL BD™ slip-tip syringe, bulk, non-sterile syringe (e.g. Becton, Dickinson and Company, Product No. 301025) with 100 μL markings. The desired volume is then applied to the leaf, e.g. as described in Examples 9 and 10, with the tip of the syring against the leaf and positive pressure applied to the syringe plunger. Sufficient pressure is applied in order to infuse the area beneath the syringe opening, but not so much pressure as to cause a visible-to-the-eye puncture or hole to form in the leaf. Some run-off of solution around the syringe opening is expected. In the foregoing examples, two spots were applied to each of two leaves per seedling for soybean plants. […] In soybean, both spots per leaf were at the distal portion of the leaf about 1-2 cm apart. When the method was applied to Arabidopsis, two developmentally intermediate aged leaves were chosen per plant, and one spot infiltration was carried out per leaf.

[1] = LC-MS assay of GH3 conjugation of 2,4-D with Asp or Glu; type: biochemical; conditions: for kcat (hrs−1) 2,4-D-Asp: conjugation of 2,4-D with Asp by recombinant GH3 protein, 2,4-D-Asp product by LC-MS; for kcat (hrs−1) 2,4-D-Asp / kcat (hrs−1) 2,4-D-Glu: 5 mM 2,4-D substrate; for kcat (hrs−1) 2,4-D-Glu: conjugation of 2,4-D with Glu by recombinant GH3 protein, 2,4-D-Glu product by LC-MS
Procedure, shortened: (§1)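 Kinetic parameters come from Michaelis-Menten fits of initial velocities. Velocities reflect LC-MS quantification, against standards, of Asp or Glu conjugates formed by purified GH3 (44 to 164 μg/mL) with 5 mM ATP and MgCl2 at pH 8.0, 30° C.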

[2] = LC-MS assay of GH3 conjugation of IAA with Asp or Glu; type: biochemical; conditions: for kcat (hrs−1) IAA-Asp: conjugation of IAA with Asp by recombinant GH3 protein, IAA-Asp product by LC-MS; for kcat (hrs−1) IAA-Glu: conjugation of IAA with Glu by recombinant GH3 protein, IAA-Glu product by LC-MS
Procedure, shortened: as §1

[3] = LC-MS assay of GH3 conjugation of dicamba with Asp or Glu; type: biochemical
Experimental: To detect and monitor the formation of acyl conjugates with 2,4-D or dicamba, a sensitive LC-MS method was developed using the respective amino acid conjugate standards. […] […] […] The supernatant was diluted 20× in water and then analyzed by LC-MS (AB Sciex 4000 QTrap coupled with Shimadzu Nexera UHPLC) using a Phenomenex Luna 3 μm Phenyl-Hexyl (00B-4256-Y0) column. The concentration of the conjugates was calculated based on the standards. Kinetic parameters were estimated by fitting initial velocity values to the Michaelis-Menten equation.
The GH3 superfamily conjugase activity analysis of IAA, 2,4-D or dicamba with Asp or Glu was done using LC-MS to analyze the final conjugate products as described in Example 1. Protein sequences of GH3 homologs (Table 3) were obtained from public databases (NCBI, http://www.ncbi.nlm.nih.gov/) by Blast analysis of AtGH3.17 protein sequence (accession # Q9FZ87). Coding sequences were designed for optimal expression in E. coli based on the protein sequences and synthesized. Synthesized coding sequences along with N-term his-tag coding sequences were cloned into a pET24a-based E. coli expression vector. The E. coli expression vectors were transformed into OverExpress C41(DE3) cells (Lucigen) for protein expression. Recombinant E. coli strains were inoculated into 5 ml LB media supplemented with 40 mg/L kanamycin and cultured overnight at 37° C. The overnight culture (0.5 mL) was inoculated into 50 mL LB medium plus 40 mg/L kanamycin and grown at 30° C. until OD600 reached 0.6. The cultures were induced with 0.2 mM IPTG at 16° C., 230 rpm overnight. Cells were harvested by centrifugation at 7,000 rpm for 10 mins. The cell pellet from 50 mL of cell culture was frozen and thawed twice and then lysed in 800 μL lysis buffer A (150 mM NaCl, 50 mM Tris-HCl pH 8.0, 5 mM MgCl2, 10% glycerol) plus 20 mM imidazole, 1 mM DTT, 0.2 mg/ml lysozyme, 1/200 protease inhibitor cocktail (EMD set3, EDTA free) and 1/2000 endonuclease. Lysate was then centrifuged at 13,000 rpm for 30 min at 4° C. Supernatant was loaded onto 200 μL Ni-NTA columns pre-equilibrated with buffer A with 20 mM imidazole at 4° C. Each column was then washed with (1) 2×800 μL of buffer A with 10 mM imidazole, (2) 2×800 μL of buffer A with 20 mM imidazole and (3) 2×200 μL of buffer A with 50 mM imidazole. Protein was eluted with 200 μL of buffer A with 250 mM imidazole. The concentration was measured by Bradford assay. Purified protein was used in conjugation reaction assays as described in example 1.

O=C(COc1ccc(Cl)cc1Cl)NC(Cc1ccccc1)C(=O)O [2,4-D-Phe]
1st trifoliate leaf curl (soybean seedlings; 100 μM): 0
1st trifoliate leaf curl (soybean seedlings; 250 μM): 0
1st trifoliate leaf curl (soybean seedlings; 500 μM): 0

O=C(Cc1c[nH]c2ccccc12)NC(Cc1ccccc1)C(=O)O (stereo not shown) [IAA-Phe]
1st trifoliate leaf curl (soybean seedlings; 1.0 mM): 0
Chlorotic lesion @ app. Pnt (soybean seedlings; 1.0 mM): 0
Epinasty score (soybean seedlings; 1.0 mM): 0
1st trifoliate leaf curl (soybean seedlings; 2.5 mM): 0
Chlorotic lesion @ app. Pnt (soybean seedlings; 2.5 mM): 0
Epinasty score (soybean seedlings; 2.5 mM): 0
1st trifoliate leaf curl (soybean seedlings; 5.0 mM): 0
Chlorotic lesion @ app. Pnt (soybean seedlings; 5.0 mM): 0
Epinasty score (soybean seedlings; 5.0 mM): 0
Plant response phenotype, soybean (soybean seedlings; 1, 2.5 and 5 mM, result in words): No discernable phenotype
Lesion on leaf surface at point of application, soybean (soybean seedlings; dissolved in 50% EtOH, consistent with 50% EtOH alone control): necrotic lesion on leaf surface at point of application

B1: AIGH3-17: GH3 protein, accession XP_002890761 (protein, listed as Arabidopsis lyrata)
chain: MIPSYDPNDTEAGLKLLDDLTTNAETIQQQVLHQILSQNSGTQYLRAFLDGESDKNQQSFKNKVPVVNYDDIKPFIQRIADGESYDIVSAQPITELLTSSGTSAGKPKLMPSTAEELDRKTFFYSMLVPIMNKYVNGLDEGKGMYLLFIKPEIKTPSGLMARPVLTSYYKSQHFRNRPFNKYNVYTSPDQTILCQDSKQSMYCQLLCGLVQRSHVLRVGAVFASAFLRAVKFLEDHYKELCADIRTGTVTSWITNSSCRDSVLSILNGPNQELADEIESECAEKSWEGILRRIWPKAKYVEVIVTGSMAQYIPTLEFYSGGLPLVSTMYASSECYFGINLNPLCDPADVSYTLLPNMAYFEFLPVDDKSHEEIHFASHSNTDDDDDALKEDLIVDLVNVKVGQYYEIVITTFTGLYRYRVGDILKVTGFHNKAPQFRFVQRRNVVLSIDTDKTSEEDLLNAVTQAKLNHLQHPSSLLLMEYTSYADTSSIPGHYVLFWELKPRHSNDPPKLDDKTMDDCCSEVEDCLDYVYRRCRNRDKSIGPLEIRVVSLGTFDSLMDFCVSQGSSLNQYKTPRCVKSGGALEILDSRVIGRFFSKRVPQWEPLGLDS
kcat (hrs−1) 2,4-D-Asp [1]: 0.212 h⁻¹
kcat (hrs−1) 2,4-D-Glu [1]: 0.455 h⁻¹
kcat (hrs−1) IAA-Asp [2]: 33.508 h⁻¹
kcat (hrs−1) IAA-Glu [2]: 317.690 h⁻¹

B2: PpGH3-2: GH3 protein, accession CAD42871 (protein, listed as Physcomitrella patens)
chain: MALRIENPYYKLLDTDEEIVEDFELMSRNARETQLELLRKILERNANVEYLQRQGLNGRTDEASFKACVPVSTYANIEADVDRIADGDTSPICCVDPPTSFALSSGTTGGKCKLIPRTDALLAQAMKAGQIGSVYRRRAFPRKHEGPPVVMSFQYAGRQFDTKSGLKAGTGTTNFYRSAAFKNAKSAPFSATSPVDIVLGYDVPQQMYCHLLCGLYRCQEVEQMSAIFAYMIVEPFRLLERVWRDICKDIREGTVNERVSDPELRSSVLKVLSPNPELADLIERECAKGWSGIIERLFPNINYIMSIFSGSMLPYVAPMRQYAGSVPLMNADYGASEAWIGINLDPRCPAEDASFTIIPNFAYFEFIPVNRDSAGYDSVEGDEIVGLTDVKVGQEYEIVLTTVGGLYRYRLGDIVKVTGFFNSTPKVAFVCRKGVVLSVNTDKTDEEELRLVVGKASLLLKESNMELADYSSYTDQDSQPGHYVIFWELRSHEHLDMDLLSECCKVLDQSFNNPYMRGRAARTIGPLELAIVKEGAFARLMEQFVRKNGVGASQYKVSRCFKNPATLKHFRDETIATLRSPDFPPELLAAWRPSTKIVG
kcat (hrs−1) 2,4-D-Asp [1]: 0.699 h⁻¹
kcat (hrs−1) 2,4-D-Glu [1]: 2.820 h⁻¹
2,4-D conjugation activity with Asp or Glu ([1]; result in words): active GH3 conjugase for both IAA and 2,4-D
kcat (hrs−1) IAA-Asp [2]: 2.896 h⁻¹
kcat (hrs−1) IAA-Glu [2]: 19.308 h⁻¹
IAA conjugation activity with Asp or Glu ([2]; result in words): can also conjugate IAA to Asp and Glu; also recorded: active GH3 conjugase for both IAA and 2,4-D
Conjugation of dicamba with Glu ([3]; 16 hour reaction, result in words): could conjugate dicamba with Glu; also recorded: able to conjugate dicamba with glutamate
Amount of dicamba-Glu conjugates versus amount of protein in the reaction ([3]; FIG. 7, result in words): Increased amount of dicamba-Glu was detected; also recorded: increases with increased amount of PpGH3-2 protein
kcat (16 hrs^−1) dicamba-Glu ([3]; conjugation of dicamba with Glu, 16 hour reaction, protein conc. 983 μg/mL): 0.024 16 hrs^−1

B3: VvGH3-5: GH3 protein, accession XP_002276241 (protein, listed as Vitis vinifera)
chain: MPEAPKNRGNGAGLGVEGGILDDKNIRALEFIEDVTMNAKEVQMQVLSEIITRNSNVEYLQRHGLNGRVDADTFKKIVPVVTYEDMLPDIERIANGDMSPILCSKPISEFLTSSGTSGGERKLMPTIEEELGRRSLLYSLLMPVMNQSVPGLDEGKGMYFLFVKSEAKTPGGLMARPVLTSYYKSSYFRDRPYDPYTNYTSPNETILCPDSYQSMYSQLLCGLCQNKEVLRVGAVFASGFIRAIRFLEKHWVLLCKDIRAGTLDSQINDPSVREAVKRILKPNPELADFIEAECRRESWEGIITRLWPNTKYIDVIVTGTMSQYIPTLDYYSNGLPLVCTMYASSECYFGLNLNPLCKPSEVSYTLIPTMAYFEFLPVNRKNGFTNVSESAPLNEKEHQELVDLVDVKLGQEYELVVTTYAGLYRYRVGDILCVAGFKNKAPQFKFICRKNVALSIDSDKTDEFELQNAVKNAADHLLQFDASVTEYTSYADTSTIPGHYVLYWEIGLSGATPIPPSVFEDCCLIMEESLNSVYRQGRASDKSIGPLEIRIVEGGTFDKLMDYALSQGASINQYKTPRCVKYAPIIELLNSRVVSNYFSPKCPKWVAGHKQWCT
kcat (hrs−1) 2,4-D-Asp [1]: 2.603 h⁻¹
kcat (hrs−1) 2,4-D-Glu [1]: 0.974 h⁻¹
kcat (hrs−1) IAA-Asp [2]: 759.486 h⁻¹
kcat (hrs−1) IAA-Glu [2]: 47.289 h⁻¹
